Changes are numbered by the printed parent chain. Names and notes keep the numbering of the source.
T1: TNFR1 (Homo sapiens, UniProt P19438)
T1 chain: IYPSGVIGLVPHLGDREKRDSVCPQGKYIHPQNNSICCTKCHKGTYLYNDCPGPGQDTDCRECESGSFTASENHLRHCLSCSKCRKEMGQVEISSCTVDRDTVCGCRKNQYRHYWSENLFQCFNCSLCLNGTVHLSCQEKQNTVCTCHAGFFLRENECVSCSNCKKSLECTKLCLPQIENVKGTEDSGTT

B1: E86F (designed binder)
chain: SMEEEVEKAAKEYEKKKKEAIEKHLEKLKAKDKEAAERFLKELEEAAKEYAKDEAKTMSEEEAKRRAKKYKEKVLLSELSEEEQKFIKEAEEKLVRTILKYVEEAAK
B2: T57F (designed binder)
chain: B1 chain with T57F, F86E
B3: A30E (designed binder)
chain: B1 chain with A30E, F86E
B4: E60I (designed binder)
chain: B1 chain with E60I, F86E
B5: R66A (designed binder)
chain: B1 chain with R66A, F86E
B6: A55Q (designed binder)
chain: B1 chain with A55Q, F86E
B7: A35Q (designed binder)
chain: B1 chain with A35Q, F86E
B8: D53A (designed binder)
chain: B1 chain with D53A, F86E
B9: K27G (designed binder)
chain: B1 chain with K27G, F86E
B10: I21Q (designed binder)
chain: B1 chain with I21Q, F86E
B11: I98M (designed binder)
chain: B1 chain with F86E, I98M
B12: K56F (designed binder)
chain: B1 chain with K56F, F86E
B13: R66Y (designed binder)
chain: B1 chain with R66Y, F86E
B14: K52N (designed binder)
chain: B1 chain with K52N, F86E
B15: A106R (designed binder)
chain: B1 chain with F86E, A106R
B16: K69T (designed binder)
chain: B1 chain with K69T, F86E
B17: K33G (designed binder)
chain: B1 chain with K33G, F86E
B18: E44A (designed binder)
chain: B1 chain with E44A, F86E
B19: A30T (designed binder)
chain: B1 chain with A30T, F86E
B20: T97C (designed binder)
chain: B1 chain with F86E, T97C
B21: E14I (designed binder)
chain: B1 chain with E14I, F86E
B22: E103A (designed binder)
chain: B1 chain with F86E, E103A
B23: R65H (designed binder)
chain: B1 chain with R65H, F86E
B24: K64M (designed binder)
chain: B1 chain with K64M, F86E
B25: Y101K (designed binder)
chain: B1 chain with F86E, Y101K
B26: E49G (designed binder)
chain: B1 chain with E49G, F86E
B27: K52Y (designed binder)
chain: B1 chain with K52Y, F86E
B28: H24I (designed binder)
chain: B1 chain with H24I, F86E
B29: E3W (designed binder)
chain: B1 chain with E3W, F86E
B30: I21K (designed binder)
chain: B1 chain with I21K, F86E
B31: A63I (designed binder)
chain: B1 chain with A63I, F86E
B32: V74W (designed binder)
chain: B1 chain with V74W, F86E
B33: K18A (designed binder)
chain: B1 chain with K18A, F86E
B34: K93D (designed binder)
chain: B1 chain with F86E, K93D
B35: E92Q (designed binder)
chain: B1 chain with F86E, E92Q
B36: E72I (designed binder)
chain: B1 chain with E72I, F86E
B37: E44C (designed binder)
chain: B1 chain with E44C, F86E
B38: E104L (designed binder)
chain: B1 chain with F86E, E104L
B39: A35K (designed binder)
chain: B1 chain with A35K, F86E
B40: A10N (designed binder)
chain: B1 chain with A10N, F86E
B41: L94Q (designed binder)
chain: B1 chain with F86E, L94Q
B42: K68C (designed binder)
chain: B1 chain with K68C, F86E
B43: R96G (designed binder)
chain: B1 chain with F86E, R96G
B44: K16D (designed binder)
chain: B1 chain with K16D, F86E
B45: Y13G (designed binder)
chain: B1 chain with Y13G, F86E
B46: L75Q (designed binder)
chain: B1 chain with L75Q, F86E
B47: A106P (designed binder)
chain: B1 chain with F86E, A106P
B48: K23C (designed binder)
chain: B1 chain with K23C, F86E
B49: K29Y (designed binder)
chain: B1 chain with K29Y, F86E
B50: E61N (designed binder)
chain: B1 chain with E61N, F86E
B51: T57P (designed binder)
chain: B1 chain with T57P, F86E
B52: K23D (designed binder)
chain: B1 chain with K23D, F86E
B53: A46P (designed binder)
chain: B1 chain with A46P, F86E
B54: E104K (designed binder)
chain: B1 chain with F86E, E104K
B55: E34D (designed binder)
chain: B1 chain with E34D, F86E
B56: L43Y (designed binder)
chain: B1 chain with L43Y, F86E
B57: M2D (designed binder)
chain: B1 chain with M2D, F86E
B58: E81S (designed binder)
chain: B1 chain with E81S, F86E
B59: M2Y (designed binder)
chain: B1 chain with M2Y, F86E

Target: T1, TNFR1
Test: yeast display SC50

Binder	apparent Kd (screen) [nM]
B1	1.86
B2	0.0729
B3	0.277
B4	0.49
B5	20.2
B6	1.54
B7	0.869
B8	1.27
B9	0.79
B10	0.49
B11	5.31
B12	3.63
B13	13.8
B14	0.869
B15	3
B16	2.05
B17	1.16
B18	0.956
B19	1.16
B20	0.79

Binder	apparent Kd (screen) [nM]
B21	5.84
B22	0.446
B23	1.54
B24	0.653
B25	0.446
B26	9.41
B27	2.48
B28	2.73
B29	22.2
B30	0.446
B31	4.83
B32	0.49
B33	0.79
B34	0.446
B35	6.43
B36	0.718
B37	0.446
B38	0.49
B39	0.49
B40	2.48

Binder	apparent Kd (screen) [nM]
B41	1.16
B42	3
B43	2.73
B44	0.539
B45	2.48
B46	0.49
B47	0.653
B48	0.49
B49	0.956
B50	1.4
B51	6.43
B52	0.49
B53	11.4
B54	0.446
B55	0.718
B56	5.84
B57	0.446
B58	0.79
B59	0.49

From publication PMC12416549 (2024)
